# Square brackets hold non-standard residues; d marks the D form. Aib = CC(C)(N)C(=O)O
# T1: human GLP-2 receptor (hGLP2-R) (human, UniProt O95838)
# T1 sequence: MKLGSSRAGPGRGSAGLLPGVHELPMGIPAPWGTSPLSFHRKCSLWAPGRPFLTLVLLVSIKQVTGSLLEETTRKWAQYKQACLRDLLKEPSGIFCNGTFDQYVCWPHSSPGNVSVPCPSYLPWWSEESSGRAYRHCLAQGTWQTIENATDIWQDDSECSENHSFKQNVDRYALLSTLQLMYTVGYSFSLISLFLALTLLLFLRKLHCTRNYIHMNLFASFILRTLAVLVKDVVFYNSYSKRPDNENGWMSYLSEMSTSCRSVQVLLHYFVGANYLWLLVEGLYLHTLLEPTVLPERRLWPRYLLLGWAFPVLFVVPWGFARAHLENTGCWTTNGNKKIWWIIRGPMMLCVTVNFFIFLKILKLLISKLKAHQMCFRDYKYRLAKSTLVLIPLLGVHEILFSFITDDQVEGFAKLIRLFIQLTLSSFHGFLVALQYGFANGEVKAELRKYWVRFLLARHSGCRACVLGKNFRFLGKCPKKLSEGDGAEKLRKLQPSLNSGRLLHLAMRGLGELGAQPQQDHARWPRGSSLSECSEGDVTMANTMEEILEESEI
# How the values were obtained:
# [1] = biological target: human glucagon-like peptide 1 receptor (GLP-1R) (human, UniProt P43220); experiment: cell-based or functional assay
# [2] = biological target: T1, human GLP-2 receptor (hGLP2-R); experiment: cell-based or functional assay
Binder,EC50 GLP-1 (nM); cAMP AlphaScreen [1] [nM],EC50 GLP-2 (nM); cAMP AlphaScreen [2] [nM]
H-H[Aib]EGSFTSELATILDEQAARDFIAWLIYHKITD-OH (SMILES CC[C@H](C)[C@H](NC(=O)[C@H](Cc1ccccc1)NC(=O)[C@H](CC(=O)O)NC(=O)[C@H](CCCNC(=N)N)NC(=O)[C@H](C)NC(=O)[C@H](C)NC(=O)[C@H](CCC(N)=O)NC(=O)[C@H](CCC(=O)O)NC(=O)[C@H](CC(=O)O)NC(=O)[C@H](CC(C)C)NC(=O)[C@@H](NC(=O)[C@@H](NC(=O)[C@H](C)NC(=O)[C@H](CC(C)C)NC(=O)[C@H](CCC(=O)O)NC(=O)[C@H](CO)NC(=O)[C@@H](NC(=O)[C@H](Cc1ccccc1)NC(=O)[C@H](CO)NC(=O)CNC(=O)[C@H](CCC(=O)O)NC(=O)C(C)(C)NC(=O)[C@@H](N)Cc1c[nH]cn1)[C@@H](C)O)[C@@H](C)O)[C@@H](C)CC)C(=O)N[C@@H](C)C(=O)N[C@@H](Cc1c[nH]c2ccccc12)C(=O)N[C@@H](CC(C)C)C(=O)N[C@H](C(=O)N[C@@H](Cc1ccc(O)cc1)C(=O)N[C@@H](Cc1c[nH]cn1)C(=O)N[C@@H](CCCCN)C(=O)N[C@H](C(=O)N[C@H](C(=O)N[C@@H](CC(=O)O)C(=O)O)[C@@H](C)O)[C@@H](C)CC)[C@@H](C)CC) [Compound 7],0.017,0.11
H-H[Aib]EGTFTSELATILDEQAARDFIAWLIEHKITD-OH (SMILES CC[C@H](C)[C@H](NC(=O)[C@H](Cc1ccccc1)NC(=O)[C@H](CC(=O)O)NC(=O)[C@H](CCCNC(=N)N)NC(=O)[C@H](C)NC(=O)[C@H](C)NC(=O)[C@H](CCC(N)=O)NC(=O)[C@H](CCC(=O)O)NC(=O)[C@H](CC(=O)O)NC(=O)[C@H](CC(C)C)NC(=O)[C@@H](NC(=O)[C@@H](NC(=O)[C@H](C)NC(=O)[C@H](CC(C)C)NC(=O)[C@H](CCC(=O)O)NC(=O)[C@H](CO)NC(=O)[C@@H](NC(=O)[C@H](Cc1ccccc1)NC(=O)[C@@H](NC(=O)CNC(=O)[C@H](CCC(=O)O)NC(=O)C(C)(C)NC(=O)[C@@H](N)Cc1c[nH]cn1)[C@@H](C)O)[C@@H](C)O)[C@@H](C)O)[C@@H](C)CC)C(=O)N[C@@H](C)C(=O)N[C@@H](Cc1c[nH]c2ccccc12)C(=O)N[C@@H](CC(C)C)C(=O)N[C@H](C(=O)N[C@@H](CCC(=O)O)C(=O)N[C@@H](Cc1c[nH]cn1)C(=O)N[C@@H](CCCCN)C(=O)N[C@H](C(=O)N[C@H](C(=O)N[C@@H](CC(=O)O)C(=O)O)[C@@H](C)O)[C@@H](C)CC)[C@@H](C)CC) [Compound 5],0.0098,0.067
H-H[Aib]EGSFTSELATILDEQAARDFIAWLIHHKITD-OH (SMILES CC[C@H](C)[C@H](NC(=O)[C@H](Cc1ccccc1)NC(=O)[C@H](CC(=O)O)NC(=O)[C@H](CCCNC(=N)N)NC(=O)[C@H](C)NC(=O)[C@H](C)NC(=O)[C@H](CCC(N)=O)NC(=O)[C@H](CCC(=O)O)NC(=O)[C@H](CC(=O)O)NC(=O)[C@H](CC(C)C)NC(=O)[C@@H](NC(=O)[C@@H](NC(=O)[C@H](C)NC(=O)[C@H](CC(C)C)NC(=O)[C@H](CCC(=O)O)NC(=O)[C@H](CO)NC(=O)[C@@H](NC(=O)[C@H](Cc1ccccc1)NC(=O)[C@H](CO)NC(=O)CNC(=O)[C@H](CCC(=O)O)NC(=O)C(C)(C)NC(=O)[C@@H](N)Cc1c[nH]cn1)[C@@H](C)O)[C@@H](C)O)[C@@H](C)CC)C(=O)N[C@@H](C)C(=O)N[C@@H](Cc1c[nH]c2ccccc12)C(=O)N[C@@H](CC(C)C)C(=O)N[C@H](C(=O)N[C@@H](Cc1c[nH]cn1)C(=O)N[C@@H](Cc1c[nH]cn1)C(=O)N[C@@H](CCCCN)C(=O)N[C@H](C(=O)N[C@H](C(=O)N[C@@H](CC(=O)O)C(=O)O)[C@@H](C)O)[C@@H](C)CC)[C@@H](C)CC) [Compound 6],0.014,0.047
H-H[Aib]EGSFTSELATILDEQAARDFIAWLILHKITD-OH (SMILES CC[C@H](C)[C@H](NC(=O)[C@H](Cc1ccccc1)NC(=O)[C@H](CC(=O)O)NC(=O)[C@H](CCCNC(=N)N)NC(=O)[C@H](C)NC(=O)[C@H](C)NC(=O)[C@H](CCC(N)=O)NC(=O)[C@H](CCC(=O)O)NC(=O)[C@H](CC(=O)O)NC(=O)[C@H](CC(C)C)NC(=O)[C@@H](NC(=O)[C@@H](NC(=O)[C@H](C)NC(=O)[C@H](CC(C)C)NC(=O)[C@H](CCC(=O)O)NC(=O)[C@H](CO)NC(=O)[C@@H](NC(=O)[C@H](Cc1ccccc1)NC(=O)[C@H](CO)NC(=O)CNC(=O)[C@H](CCC(=O)O)NC(=O)C(C)(C)NC(=O)[C@@H](N)Cc1c[nH]cn1)[C@@H](C)O)[C@@H](C)O)[C@@H](C)CC)C(=O)N[C@@H](C)C(=O)N[C@@H](Cc1c[nH]c2ccccc12)C(=O)N[C@@H](CC(C)C)C(=O)N[C@H](C(=O)N[C@@H](CC(C)C)C(=O)N[C@@H](Cc1c[nH]cn1)C(=O)N[C@@H](CCCCN)C(=O)N[C@H](C(=O)N[C@H](C(=O)N[C@@H](CC(=O)O)C(=O)O)[C@@H](C)O)[C@@H](C)CC)[C@@H](C)CC) [Compound 8],0.021,0.084
H-H[Aib]EGTFTDELATILDEQAARDFIAWLIAHKITD-OH (SMILES CC[C@H](C)[C@H](NC(=O)[C@H](CC(C)C)NC(=O)[C@H](Cc1c[nH]c2ccccc12)NC(=O)[C@H](C)NC(=O)[C@@H](NC(=O)[C@H](Cc1ccccc1)NC(=O)[C@H](CC(=O)O)NC(=O)[C@H](CCCNC(=N)N)NC(=O)[C@H](C)NC(=O)[C@H](C)NC(=O)[C@H](CCC(N)=O)NC(=O)[C@H](CCC(=O)O)NC(=O)[C@H](CC(=O)O)NC(=O)[C@H](CC(C)C)NC(=O)[C@@H](NC(=O)[C@@H](NC(=O)[C@H](C)NC(=O)[C@H](CC(C)C)NC(=O)[C@H](CCC(=O)O)NC(=O)[C@H](CC(=O)O)NC(=O)[C@@H](NC(=O)[C@H](Cc1ccccc1)NC(=O)[C@@H](NC(=O)CNC(=O)[C@H](CCC(=O)O)NC(=O)C(C)(C)NC(=O)[C@@H](N)Cc1c[nH]cn1)[C@@H](C)O)[C@@H](C)O)[C@@H](C)O)[C@@H](C)CC)[C@@H](C)CC)C(=O)N[C@@H](C)C(=O)N[C@@H](Cc1c[nH]cn1)C(=O)N[C@@H](CCCCN)C(=O)N[C@H](C(=O)N[C@H](C(=O)N[C@@H](CC(=O)O)C(=O)O)[C@@H](C)O)[C@@H](C)CC) [Compound 9],0.007,0.041

# Next, values leading:
EC50 GLP-1 (nM); cAMP AlphaScreen [1] [nM],EC50 GLP-2 (nM); cAMP AlphaScreen [2] [nM],Binder
39,,HGDGSFSDEMNTILDNLAARDFINWLIQTKITD [Teduglutide ([Gly2]-hGLP-2 (1-33))]
0.0074,0.036,H-H[Aib]EGTFTSELATILDEQAARDFIAWLIAHKITD-OH (SMILES CC[C@H](C)[C@H](NC(=O)[C@H](CC(C)C)NC(=O)[C@H](Cc1c[nH]c2ccccc12)NC(=O)[C@H](C)NC(=O)[C@@H](NC(=O)[C@H](Cc1ccccc1)NC(=O)[C@H](CC(=O)O)NC(=O)[C@H](CCCNC(=N)N)NC(=O)[C@H](C)NC(=O)[C@H](C)NC(=O)[C@H](CCC(N)=O)NC(=O)[C@H](CCC(=O)O)NC(=O)[C@H](CC(=O)O)NC(=O)[C@H](CC(C)C)NC(=O)[C@@H](NC(=O)[C@@H](NC(=O)[C@H](C)NC(=O)[C@H](CC(C)C)NC(=O)[C@H](CCC(=O)O)NC(=O)[C@H](CO)NC(=O)[C@@H](NC(=O)[C@H](Cc1ccccc1)NC(=O)[C@@H](NC(=O)CNC(=O)[C@H](CCC(=O)O)NC(=O)C(C)(C)NC(=O)[C@@H](N)Cc1c[nH]cn1)[C@@H](C)O)[C@@H](C)O)[C@@H](C)O)[C@@H](C)CC)[C@@H](C)CC)C(=O)N[C@@H](C)C(=O)N[C@@H](Cc1c[nH]cn1)C(=O)N[C@@H](CCCCN)C(=O)N[C@H](C(=O)N[C@H](C(=O)N[C@@H](CC(=O)O)C(=O)O)[C@@H](C)O)[C@@H](C)CC) [Compound 3]
0.015,0.044,H-H[Aib]EGSFTSELATILDEQAARDFIAWLIEHKITD-OH (SMILES CC[C@H](C)[C@H](NC(=O)[C@H](Cc1ccccc1)NC(=O)[C@H](CC(=O)O)NC(=O)[C@H](CCCNC(=N)N)NC(=O)[C@H](C)NC(=O)[C@H](C)NC(=O)[C@H](CCC(N)=O)NC(=O)[C@H](CCC(=O)O)NC(=O)[C@H](CC(=O)O)NC(=O)[C@H](CC(C)C)NC(=O)[C@@H](NC(=O)[C@@H](NC(=O)[C@H](C)NC(=O)[C@H](CC(C)C)NC(=O)[C@H](CCC(=O)O)NC(=O)[C@H](CO)NC(=O)[C@@H](NC(=O)[C@H](Cc1ccccc1)NC(=O)[C@H](CO)NC(=O)CNC(=O)[C@H](CCC(=O)O)NC(=O)C(C)(C)NC(=O)[C@@H](N)Cc1c[nH]cn1)[C@@H](C)O)[C@@H](C)O)[C@@H](C)CC)C(=O)N[C@@H](C)C(=O)N[C@@H](Cc1c[nH]c2ccccc12)C(=O)N[C@@H](CC(C)C)C(=O)N[C@H](C(=O)N[C@@H](CCC(=O)O)C(=O)N[C@@H](Cc1c[nH]cn1)C(=O)N[C@@H](CCCCN)C(=O)N[C@H](C(=O)N[C@H](C(=O)N[C@@H](CC(=O)O)C(=O)O)[C@@H](C)O)[C@@H](C)CC)[C@@H](C)CC) [Compound 4]
